# Results as given in the DeepSol protein solubility set.
# Assay: soluble on expression in E. coli; label from the status in PepcDB or PDB records
row,Sequence,soluble on expression in E. coli
1,GPGSMYHGNGSVNDAADASFCPQPSPTRPSREAPPSAPPPTGRVTRTQALARLLRGEGSSTHTKPVRAPGNDAKELKVSETRKECVVGEVQADAPPKKSEGTSSHAAVPLAASATITPDDRDDIGAALQEIGDASRRHRRHSHDAEGTSGDAVRDDASDGGAANMSDDYNGDDNSESTCSARRSGAGSAPAEGFSAHPTHARARGRAVSTRQAANALPRMLALQRSFEAEAKHLYEYCGTHVVEWPTLAVEWIPDRAFVDPERDYTLQYLAIGTQAHPLSGAANAVKVMEVAVPVTAAKDVMYGLYGDDDTAGVEAVDPAREGGIDPGKRFANVKGHFHCEQTLTMDAAVLKIRAMPAETNVIAVKTASGFIGVYNLLQDLTQNEAGRTVPDALLCGHRRGGFGLSWNALKPGFIASAADDGYVNYYDVSHRLTIDVREASDVDPALTGPETQPLERLVGHRDIVTDCCWHSSQGHLLASSSMDGDARLWDIRMSAGSSTIPSAHASGATAAQFHPIGAFQLATAGAEGSISLWDIRRTADPVWELNYHGRPITGLQWSPFCETVMLSYGADGRVVLWDLAKTTLPLGYSEDQLAPPEVSFVHIGHVGRVTDASWNSSTTEEWLLASADTTNGVHVYRPLVNVVQDYRAYQH,not soluble
2,MGSLRLTERPHVRKARLWVKLSDGKEGWVRCDLCQRRCVIAPGKYGACGVRKNIGGELYTLVYGLLSASNIDPIEKKPLLHFYPGSTVLSISTVGCNFFCQFCQNFEISQSRLEKGLYGVYRTPEEVVRLALVYGADGITYTYNEPTIFFETVYDVAKEAKKHGLFNTMVTNGYMTPEAVDELGSLIDAATVDFKGGGDPEFYRKIMFVPDPEPIYEAILAMKDKGWWIEITNLVVPILGDKPEYVRRMARWIVENLGPEVPFHLLRFHPDYKLRHVPHTPVKTLEKLARIAMEEGLKHVYIGNVWGHPLEDTYCPKCGYKVVDREGFAIVEWRLTSDFRCPRCGYKLNFRGEYTPRNINYPMPVM,not soluble
3,MKMFNIASEDDIKKGLASDVYFERSISTLTETCKDHRVAMEATVSGPLDTWINFSGLDEVLKLLEGIDVDVFAIPEGTILYPRDSNGIPVPFIRIEGNYCDFGMYETSILGMICQASGISTKSSKVRIAAGDCPFFSFGIRRMHPAVSPMIDRSAFIGGADGVSGILGAKLIGEEPIGTMPHALSIILGDDEAWRLTLKNTKNGQKSVILIDTYMDEKFAAIKVAEEFEHVDYIRLDTPSSRRGNFEALVREVKWELALRGRSDIKIMVSGGLDENTVAKLREAGAQAFGVGTSISSAKPFDFALDIVSIDDKPKTKRGKLSGKKSVLRCEKCRKVEVVPYGVESKPCSCGGVMHNIIVKYMEHGKLLSQYPEPKEIRKRTLSELEYFRSSN,soluble
4,MFDGIGFMELLLIGVLGLIVLGPERLPVAVRSVTSWVRAMKRMANSVKEELEQELKIEQLHADLKKAESKGLSNLSPELQESIEQLKQAAQSVNRPYQVQDTPSAQDNQIHNPASQTVSTEASSTSASSAPKSESIQGEDPRSNTKANGLEHHHHHH,soluble
5,MKHHHHHHPMVKEYKTITQIAGPLIFVEKTEPVGYNEIVNIKMGDGTVRRGQVLDSSADIVVVQVFEGTGGLDKDCGVIFTGETLKLPASVDLLGRILSGSGEPRDGGPRIVPDQLLDINGAAMNPYARLPPKDFIQTGISTIDGTNTLVRGQKLPIFSASGLPHNEIALQIARQASVPGSESAFAVVFAAMGITNEEAQYFMSDFEKTGALERAVVFLNLADDPAVERIVTPRMALTAAEYLAYEHGMHVLVILTDITNYAEALRQMGAARNEVPGRRGYPGYMYTDLATLYERAGIVKGAKGSVTQIPILSMPGDDITHPIPDLSGYITEGQIVVARELHRKGIYPPINVLPSLSRLMNSGIGAGKTREDHKAVSDQMYAGYAEGRDLRGLVAIVGKEALSERDTKFLEFADLFEDKFVRQGWNENRTIEDTLEIGWQILTHLPENQLGRIDNKYIQKYHPAHRKAK,soluble
6,MTEVRRRGRPGQAEPVAQKGAQALERGIAILQYLEKSGGSSSVSDISLNLDLPLSTTFRLLKVLQAADFVYQDSQLGWWHIGLGVFNVGAAYIHNRDVLSVAGPFMRRLMLLSGETVNVAIRNGNEAVLIGQLECKSMVRMCAPLGSRLPLHASGAGKALLYPLAEEELMSIILQTGLQQFTPTTLVDMPTLLKDLEQARELGYTVDKEEHVVGLNCIASAIYDDVGSVVAAISISGPSSRLTEDRFVSQGELVRDTARDISTALGLKAHP,soluble
7,MGSQKRLVQRVERKLEQTVGDAFARIFGGSIVPQEVEALLRREAADGIQSLQGNRLLAPNEYIITLGVHDFEKLGADPELKSTGFARDLADYIQEQGWQTYGDVVVRFEQSSNLHTGQFRARGTVNPDVETHPPVIDCARPQSNHAFGAEPGVAPMSDNSSYRGGQGQGRPDEYYDDRYARPQEDPRGGPDPQGGSDPRGGYPPETGGYPPQPGYPRPRHPDQGDYPEQIGYPDQGGYPEQRGYPEQRGYPDQRGYQDQGRGYPDQGQGGYPPPYEQRPPVSPGPAAGYGAPGYDQGYRQSGGYGPSPGGGQPGYGGYGEYGRGPARHEEGSYVPSGPPGPPEQRPAYPDQGGYDQGYQQGATTYGRQDYGGGADYTRYTESPRVPGYAPQGGGYAEPAGRDYDYGQSGAPDYGQPAPGGYSGYGQGGYGSAGTSVTLQLDDGSGRTYQLREGSNIIGRGQDAQFRLPDTGVSRRHLEIRWDGQVALLADLNSTNGTTVNNAPVQEWQLADGDVIRLGHSEIIVRMH,soluble
8,MGSDKIHHHHHHMKYYICVCVFLLLNACNSDFSTNQEDIKYPSDKEKSKSNMEASSKEEDPNKKIKNTLLNDLINLIEIANEHKEKYEKRMQEEPSDQYGILAFQELDLSVGKISEDTPQSKKFRKNTYSPLSAIDVNKLKDLSEIIRNSGQIQGLFNIFNRFGGIFDDSLNHVYSKKDILGGLEILDLDKLKNSFEKLLSIKETFSKMLNQLLLDYKNDKDHIRTETNKLKSHTTALFEQLDKKEDEAYEPKNQIFSISNL,not soluble
9,MAHHHHHHMILHGALSQERDRLLSSYLKSPITLSFPPPLPLLALPSPPSFFVYKKNVFFFRLGMGDARSASSKASSPSCVLAATPRDFGRSAEPGDSPRPPIIAVLYRPGQAKRERQPARGGRGGGQRRLVSYFLPALAAHVRHGKQWTTYPLSFLYPYRPSHSLSTPPHTPSIITDPRITRRKLASVLSLFYLQSVTMMASGGDEQLDALVDSILQSSDHLGSIDQITQRLPSPQQQQLSNPAFTSSTQQREHTSSDSHDTGVRAHMHAVSPGGSSSSVGNFVVAVPAAHHASASTSRATATHLDTEDGEKGEEEDDLSALVERILAGPGVRGRPSTSSASSPRFSQVPPPHIGNSGATSTSGLKGATRVKGGSSSLSRTFGAGPASPNARMQAVVRRLTLWYERKEAKRVQAVYEALEREQLDCTFEPRINRLGVEVGGSVVVDEDDRPLHRRHYSADEYPRRSSASSKARGSSGSRAVSHTNTISMSSSSSRVTPHVCEYIPSLQPPSQPITGADAFVERLRRAQDERDTVREAEEAKRLHYYDPTTFRRDLTVPVPFEFVETRPRRLAAAMTAAAGGSPSRGPGDIVGVTRTSIPPFSARAAALAACGDAGATPPRPAEDGFRDVNEDKRLTPENTFLSLAPHIRETLLFDRQMELQLRRATDSVRRVTRGE,not soluble
10,MTLVVPFDGSELAEAALVRAAEFGTVFEEDVLAVSVIRNGNAKYAREHDWIGPNEDFDLEAVVTSLHEQVIDLCPSSDFRHTVVDRYAPAGAVAKAIRKLAKREDASMVFIGSENAGHLVTSISSVGGSIASDDAYDVVIVRHR,not soluble
11,MNRLLQQSVSRGPLAVRASSTITTKPPTPNQITKNNAQFDKVTHTGQAWDQSDYRLQRFDISKKSVNPNVAMHLIDQRPPEDCGDKRVVFCDGGHPALGHPKVYINLDKPGVHACGYCGNRFYNSHATKAEDMKIQHLNC,not soluble
12,MSLKQKLIKKAQELRQHGFTTGEIADELNVSMDTARWLTLQKPAEEKPEAPVDFFINWKSLGGNSTRLRYVSGALSDMALSHGEAEVILGIAVSGIPFATMMADFLEDMSGVETSLAVYHPHKHRKEKDDGEGAISTNFGSVEGKKVVIVDDVITSGKTVKEVIHAVKDHGGEPIAVTVLIDKSGLSEIEEVPIESLIKVGRLEGHHHHHH,soluble
13,MSLVENLFLEPQSKRRKINPETIESPSPNCNHWFVRNKICISCYTTVDNFEGRSFDYLYKGMQMSNEALGFTKGLISQTSWLEDKKLHLVLDLDQTLIHTIKTSLLYESEKYIIEEVESRKDIKRFNTGFPEESLIKLRPFVHQFLKECNEMFSMYVYTKGGYDYARLVLEMIDPDKFYFGNRVITRRESPGFKTLDLVLADERGIVIVDDTSSVWPHDKKNLLQIARYKYFGDKSCLFSEDKKKIDESDEKGPLNTALRFLKDVHEEFFYDWSKKDLDSVDVRPLLKEISLRWKRKADGVV,soluble
14,MELGLYTFADVNPNPADGRGPEGARRLRELLEEIELADQVGLDVFGLGEHHRPDYVVSSPSTVLAAAAVKTKNIRLTSAVSVLSSDDPVRVFQQFSTVDLLSNGRAEIMAGRGSFIESYPLFGYDLEDYDVLFAEKLDLLLALREQEVVTWSGTKHPAINGRGVYPRPLQERLPVWIAVGGTPQSVARAGAMGLPVALAIIGGEYRRFAPLFDLYHEAARRAGQEKTKLRTSINVHGFIADTTDKAADQFYGPQAEVMNRIGRERGWGPTNRAHFDAARGPEGNLFLGEPELVAEKIIKAHGVFKNDRFLLQMAIGLMPHDQIMRGIELYGTKVAPLVRKELTGSADPVKATA,soluble
15,MGSDKIHHHHHHMSKLLMIGTGPVAIQLANICYLKSDYEIDMVGRASTSEKSKRLYQAYKKEKQFEVKIQNEAHQHLEGKFEINRLYKDVKNVKGEYETVVMACTADAYYDTLQQLSLETLQSVKHVILISPTFGSQMIVEQFMSKFSQDIEVISFSTYLGDTRIVDKEAPNHVLTTGVKKKLYMGSTHSNSTMCQRISALAEQLKIQLEVVESPLHAETRNSSLYVHPPLFMNDFSLKAIFEGTDVPVYVYKLFPEGPITMTLIREMRLMWKEMMAILQAFRVPSVNLLQFMVKENYPVRPETLDEGDIEHFEILPDILQEYLLYVRYTAILIDPFSQPDENGHYFDFSAVPFKQVYKNEQDVVQIPRMPSEDYYRTAMIQHIGKMLGIKTPMIDQFLTRYEASCQAYKDMHQDQQLSSQFNTNLFEGDKALVTKFLEINRTLS,not soluble
16,MSLTTIPIWDVQQTPELNISAADYSLLTDLYQLTMAACYTGEGVEQRRASFELFVRRSPEGFGYLIAMGLAQALEYLEKLRFSPEQIAALQATGIFAHAGEGFWSLLAEGRFTGDVWAVPEGTAVFANEPLLRVEAPLWQAQLVETYLLNTLNYQTLVATRAARLRDIAGEQATLLEFGTRRAFSPQASLWAARAALAGGLDATSNVLAALQLGQQPSGTMAHALVMALSAMEGSEEQAFSAFHRYFPGAPLLIDTYDTIAAAQHLAEKVNTGKMELSGVRLDSGDLVSLSKQVRSLLPDVSIFASGDLDEWEIAKLQAAGAEIDGYGLGTKLVTGSPVNGVYKLVEIDDIPVMKKSSGKTTYPGRKQIFRSFGDGQVQADRLGLITDTPLITEKPLLELVVKEGQRLQPRETLSAIRQRTAASVASLPEQTRRLDNPVPVPIQISTALQDLTEVTLQRLNEGHHHHHH,not soluble
17,MLVQGAGGNTSIKQAGVLWIKASGTWLKNARDDEIMVPVALAPLLDAVSHRSPAAEAAGQFTLADLNPRQLRPSIETTVHALLPQKIVVHVHCVETISIAVQANAEALLEGRLRGLDWAFVPYRRPGLPLAQAIAERLKPATNVLVLGNHGLVVAADTVAEAALLLQRVTGLLARQPRPAPPPDLDALLRLAAGSDYRLPALEHHHHHH,soluble
